As usually defined, the Kd is a measure of binding affinity in units of concentration. Usually koff stands for the rate constant with which the complex falls apart. As usually defined, the kon is a measure of how fast the partners come together. A higher kon goes with fast association. In general, IC50 refers to the concentration at which inhibition is half-maximal.

The text below walks through data of patent US20170015742A1 (published 2017).

Test [1] addresses T1, mouse PDGF-B (PR-1577160) (mouse, UniProt P31240 82-190).
T1 construct: Recombinant; also called mouse PDGF-BB; mPDGF-BB
The test can be described thus: SPR (Biacore), binding protein captured by anti-human Fc, antigen injected. On the procedure: (§1) Unreacted moieties on the biosensor surface were blocked with ethanolamine. For kinetic analysis, rate equations derived from the 1:1 Langmuir binding model were fitted simultaneously to multiple antigen injections (using global fit analysis) with the use of Scrubber 2 (BioLogic Software), Biacore Biaevaluation 4.0.1 software or Biacore T100 Evaluation software. Purified antibodies or DVD-Ig molecules were diluted in running buffer for capture across goat anti-human Fc reaction surfaces. Antibodies or DVD-Ig molecules to be captured as a ligand (1 μg/ml) were injected over reaction matrices at a flow rate of 10 μl/minute. During the assay, all measurements were referenced against the capture surface alone (i.e., with no captured antibody or DVD-Ig molecule). […] The equilibrium dissociation constant KD (M) of the reaction between antibodies and the target antigen was then calculated from the kinetic rate constants by the following formula: KD=Koff/Kₒₙ. Binding was recorded as a function of time and kinetic rate constants were calculated. In this assay, on-rates as fast as 10⁶M⁻¹s⁻¹ and off-rates as slow as 10⁻⁶ s⁻¹ could be measured.
For orientation: Surface plasmon resonance follows binding to a sensor surface in real time, without labels.

In test [2] the target is T2, human VEGF 165 (PR-1350437) (human, UniProt P15692 207-395).
T2 construct: Purified recombinant protein; also called hVEGF165
Described as above. As to the method:
as §1

For test [3], the target named is T3, human PDGF-B (PR-1373790) (human, UniProt P01127 82-190).
T3 construct: Soluble recombinant PDGF-BB homodimer; also called human PDGF-BB; hPDGF-BB
The description is as above. As to the method:
as §1

Test [4] deals with T4, human VEGF 121 (PR-1515941) (human, UniProt P15692 207-395).
T4 construct: Recombinant isoform; also called hVEGF121
T4 sequence: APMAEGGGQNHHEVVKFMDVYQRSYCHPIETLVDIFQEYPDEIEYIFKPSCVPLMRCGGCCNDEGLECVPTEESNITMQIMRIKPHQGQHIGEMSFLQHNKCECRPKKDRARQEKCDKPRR
Described as above. As to the method:
as §1

Test [5] deals with T5, human VEGF 111 (PR-1520687) (human, UniProt P15692-10 27-137).
T5 construct: also called hVEGF111
T5 sequence (looked up): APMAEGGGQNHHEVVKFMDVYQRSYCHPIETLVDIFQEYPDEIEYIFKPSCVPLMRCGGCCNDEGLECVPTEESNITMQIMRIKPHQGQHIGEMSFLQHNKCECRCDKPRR
Described as above. On the procedure:
as §1

The target of a further test is T6, cyno PDGF-B (PR-1575400) (cynomolgus monkey, UniProt P01127 82-190 (human entry), limits assumed).
T6 construct: Recombinant; also called cynomolgus monkey PDGF-BB; cynoPDGF-BB
T6 chain: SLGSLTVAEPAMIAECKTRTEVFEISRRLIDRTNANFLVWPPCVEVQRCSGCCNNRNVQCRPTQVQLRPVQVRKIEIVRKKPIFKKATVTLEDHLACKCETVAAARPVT
The test is described as above. As to the method: as §1

Test [6] addresses T7, recombinant human VEGF165 (human, UniProt P15692 207-395). Description: cell-based or functional assay.
The target of test [7] is T8, recombinant human PDGF-BB (human, UniProt P01127 82-190). Description: cell-based or functional assay.
In test [8] the target is T7, recombinant human VEGF165. Description: competition ELISA: DVD-Ig titrated against biotinylated hVEGF165 binding to coated hVEGFR2-Fc. On the procedure:
To identify molecules that could block the binding of hVEGF₁₆₅ to the hVEGF-R2 (KDR/Flk-1) receptor, a competition ELISA was performed. […] Plates were then washed four times with wash buffer (TBS, 0.05% Tween-20) and blocked with Superblock blocking buffer (Thermo Scientific, cat#37535). […] The pre-incubated sample/hVEGF₁₆₅ complex was added to the coated plate at 50 μL in duplicate and incubated for 30 minutes at 25° C. with shaking. Following incubation, plates were washed four times with wash buffer. Streptavidin-polyHRP-40 (Fitzgerald cal#65r-s104phrp) was diluted in assay diluent (10% Superblock containing 0.05% surfactamps) and added to plates (50 μL) for 45 minutes at 25° C. with shaking. Plates were washed four times with wash buffer and developed with the addition of Enhanced K-blue TMB substrate (Neogen cat#308177). The reaction was stopped with 2N sulfuric acid (VWR, cat# BDH3500-1) and the absorbance was read at 450 nm-570 nm. A decrease in observed optical density indicates the test molecule is blocking the hVEGF₁₆₅ binding to the hVEGF-R2-Fc. Data was analyzed using Softmax Pro 4.8 software and IC₅₀ values calculated using a sigmoidal dose response (variable slope) fit in GraphPad Prism 5.

For test [9], the target named is T8, recombinant human PDGF-BB. The test can be described thus: competition ELISA: DVD-Ig titrated against biotinylated hPDGF-BB binding to coated hPDGF-Rbeta-Fc. On the procedure:
Plates were then washed four times with wash buffer (TBS, 0.05% Tween-20) and blocked with Superblock blocking buffer (Thermo Scientific, cat#37535). During the blocking step, supernatants, antibodies, benchmark compounds or DVD-Ig were diluted in assay diluent (10% Superblock containing 0.05% surfactamps) and an eight point titration of each sample molecule was performed. […] Following incubation, plates were washed four times with wash buffer. Detection reagent Streptavidin-polyHRP-40 (Fitzgerald, cat#65r-s104phrp) was diluted in assay diluent and added to plates (50 μL) for 45 minutes at 25° C. with shaking. Plates were washed four times with wash buffer and developed with the addition of Enhanced K-blue TMB substrate (Neogen, cat#308177). The reaction was stopped with 2N sulfuric acid (VWR, cat# BDH3500-1) and the absorbance was read at 450 nm-570 nm. […] Data was analyzed using Softmax Pro 4.8 software and IC₅₀ values calculated using a sigmoidal dose response (variable slope) fit in GraphPad Prism 5.
For orientation: ELISA stands for enzyme-linked immunosorbent assay.

T1 sequence (P31240 82-190 limits assumed): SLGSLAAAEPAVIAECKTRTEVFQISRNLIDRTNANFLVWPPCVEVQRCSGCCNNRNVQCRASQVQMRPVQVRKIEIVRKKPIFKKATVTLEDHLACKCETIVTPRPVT

B1: 9E10.1-GS-33675 anti-VEGF/anti-PDGF DVD-Ig (PR-1610561) (bispecific antibody, human IgG1, kappa, L234A L235A)
heavy: EIQLVQSGSELKKPGASVKVSCKASGYTFTNYGMYWVKQAPGQGLEYMGWIDTETGRPTYADDFKGRFVFSLDTSVSTAYLQISSLKAEDTAVYFCARWSGDTTGIRGPWFAYWGQGTLVTVSSGGGGSGGGGSEVTLRESGPALVKPTQTLTLTCTFSGFSLSTYGMGVGWIRQPPGKALEWLANIWWDDDKYYNPSLKNRLTISKDTSKNQVVLTMTNMDPVDTATYYCARIESSGPKYSFDYWGQGTMVTVSSASTKGPSVFPLAPSSKSTSGGTAALGCLVKDYFPEPVTVSWNSGALTSGVHTFPAVLQSSGLYSLSSVVTVPSSSLGTQTYICNVNHKPSNTKVDKKVEPKSCDKTHTCPPCPAPEAAGGPSVFLFPPKPKDTLMISRTPEVTCVVVDVSHEDPEVKFNWYVDGVEVHNAKTKPREEQYNSTYRVVSVLTVLHQDWLNGKEYKCKVSNKALPAPIEKTISKAKGQPREPQVYTLPPSREEMTKNQVSLTCLVKGFYPSDIAVEWESNGQPENNYKTTPPVLDSDGSFFLYSKLTVDKSRWQQGNVFSCSVMHEALHNAYTQKSLSLSPGK
light: DIRMTQSPSSLSASVGDRVTIECLASEDIYSDLAWYQQKPGKSPKLLIYNANGLQNGVPSRFSGSGSGTDYSLTISSLQPEDVATYFCQQYNYFPGTFGQGTKLEIKGGSGGGGSGGEIVLTQSPGTLSLSPGERATLSCRASSGSIWYSFVSWYQQKPGQAPRLLIYADDQRASGIPDRFSGSGSGTDFTLTISRLEPEDFAVYYCQSYGINIDVVFGGGTKVEIKRTVAAPSVFIFPPSDEQLKSGTASVVCLLNNFYPREAKVQWKVDNALQSGNSQESVTEQDSKDSTYSLSSTLTLSKADYEKHKVYACEVTHQGLSSPVTKSFNRGEC
notes: DVD-Ig: outer domain hBEW-9E10.1 (VEGF), inner domain CL-33675 (PDGF), linkers GS-H10 / GS-L10(dR), human IgG1 L234A, L235A, H435A, kappa; Lot 2213329; also called hu VEGF 9E10.1-GS-hu PDGF 33675 [hu IgG1/k]; LALA H435A
Take B1: the Kd in test [1] is not above 0.0052 nM; in [2], 0.065 nM; in test [3], not above 0.0052 nM; in [4], 0.23 nM; in test [5] it was 0.29 nM; with cyno PDGF-B (PR-1575400), not above 0.00081 nM. Also, the koff in test [1] was 5.2e-05 s⁻¹; in test [2] it was 3.4e-05 s⁻¹; in [3], 5.2e-05 s⁻¹; in test [4] it was 4.1e-05 s⁻¹; in [5] it was 4.3e-05 s⁻¹; in the test with cyno PDGF-B (PR-1575400), 8.1e-06 s⁻¹. Further, the kon in test [1] was not below 1e+07 M⁻¹ s⁻¹; in test [2], 520000 M⁻¹ s⁻¹; in [3], not below 1e+07 M⁻¹ s⁻¹; in test [4], 180000 M⁻¹ s⁻¹; in test [5], 150000 M⁻¹ s⁻¹; with cyno PDGF-B (PR-1575400), not below 1e+07 M⁻¹ s⁻¹.

B2: 4G8.3-GS(9)-9E8.4 (g) DVD-Ig (PR-1572102) (bispecific antibody, human IgG1, kappa, L234A L235A)
heavy: EVQLVQSGSELKKPGASVKVSCKASGYTFTNYGMYWVRQAPGQGLEWMGWINTETGKPTYADDFKGRFVFSLDTSVSTAYLQISSLKAEDTAVYYCARTNYYYRSYIFYFDYWGQGTMVTVSSGGGGSGGGGSEVTLRESGPALVKPTQTLTLTCTFSGFSLSTYGMGVGWIRQPPGKALEWLANIWWDDDKYYNPSLKNRLTISKDTSKNQVVLTMTNMDPVDTATYYCARIESIGTTYSFDYWGQGTMVTVSSASTKGPSVFPLAPSSKSTSGGTAALGCLVKDYFPEPVTVSWNSGALTSGVHTFPAVLQSSGLYSLSSVVTVPSSSLGTQTYICNVNHKPSNTKVDKKVEPKSCDKTHTCPPCPAPEAAGGPSVFLFPPKPKDTLMISRTPEVTCVVVDVSHEDPEVKFNWYVDGVEVHNAKTKPREEQYNSTYRVVSVLTVLHQDWLNGKEYKCKVSNKALPAPIEKTISKAKGQPREPQVYTLPPSREEMTKNQVSLTCLVKGFYPSDIAVEWESNGQPENNYKTTPPVLDSDGSFFLYSKLTVDKSRWQQGNVFSCSVMHEALHNAYTQKSLSLSPGK
light: DTVLTQSPATLSLSPGERATLSCRASESVSTHMHWYQQKPGQAPRLLIYGASNLESGVPARFSGSGSGTDFTLTISSLEPEDFAVYFCQQSWNDPFTFGQGTKLEIKRGGSGGGGSGEFVLTQSPGTLSLSPGERATLSCERSSGDIGDSYVSWYQQKPGQAPRLVIYADDQRPSGIPDRFSGSGSGTDFTLTISRLEPEDFAVYYCQSYDINIDIVFGGGTKVEIKRTVAAPSVFIFPPSDEQLKSGTASVVCLLNNFYPREAKVQWKVDNALQSGNSQESVTEQDSKDSTYSLSSTLTLSKADYEKHKVYACEVTHQGLSSPVTKSFNRGEC
notes: DVD-Ig, outer hBDB-4G8.3 (VEGF), inner hBDI-9E8.4 (PDGF); IgG1 L234A, L235A, H435A / kappa; also called 4G8.3-GS-9E8.4 (g); DVD-Ig-1
On to B2, for which the “HMVEC-d hVEGF165 Potency IC50” value in test [6] was found to be 0.417 nM. The “NIH-3T3 hPDGF-BB Potency IC50” value in [7] worked out at 0.528 nM. The IC50 in test [8] was 0.157 nM; in test [9], more than 5 nM.

B3: 4G8.3-SL-9E8.4 (g) DVD-Ig (PR-1572105) (bispecific antibody, human IgG1, kappa, L234A L235A)
heavy: EVQLVQSGSELKKPGASVKVSCKASGYTFTNYGMYWVRQAPGQGLEWMGWINTETGKPTYADDFKGRFVFSLDTSVSTAYLQISSLKAEDTAVYYCARTNYYYRSYIFYFDYWGQGTMVTVSSASTKGPEVTLRESGPALVKPTQTLTLTCTFSGFSLSTYGMGVGWIRQPPGKALEWLANIWWDDDKYYNPSLKNRLTISKDTSKNQVVLTMTNMDPVDTATYYCARIESIGTTYSFDYWGQGTMVTVSSASTKGPSVFPLAPSSKSTSGGTAALGCLVKDYFPEPVTVSWNSGALTSGVHTFPAVLQSSGLYSLSSVVTVPSSSLGTQTYICNVNHKPSNTKVDKKVEPKSCDKTHTCPPCPAPEAAGGPSVFLFPPKPKDTLMISRTPEVTCVVVDVSHEDPEVKFNWYVDGVEVHNAKTKPREEQYNSTYRVVSVLTVLHQDWLNGKEYKCKVSNKALPAPIEKTISKAKGQPREPQVYTLPPSREEMTKNQVSLTCLVKGFYPSDIAVEWESNGQPENNYKTTPPVLDSDGSFFLYSKLTVDKSRWQQGNVFSCSVMHEALHNAYTQKSLSLSPGK
light: DTVLTQSPATLSLSPGERATLSCRASESVSTHMHWYQQKPGQAPRLLIYGASNLESGVPARFSGSGSGTDFTLTISSLEPEDFAVYFCQQSWNDPFTFGQGTKLEIKRTVAAPSVFIFPPEFVLTQSPGTLSLSPGERATLSCERSSGDIGDSYVSWYQQKPGQAPRLVIYADDQRPSGIPDRFSGSGSGTDFTLTISRLEPEDFAVYYCQSYDINIDIVFGGGTKVEIKRTVAAPSVFIFPPSDEQLKSGTASVVCLLNNFYPREAKVQWKVDNALQSGNSQESVTEQDSKDSTYSLSSTLTLSKADYEKHKVYACEVTHQGLSSPVTKSFNRGEC
notes: DVD-Ig, outer hBDB-4G8.3 (VEGF), inner hBDI-9E8.4 (PDGF); IgG1 L234A, L235A, H435A / kappa; also called DVD-Ig-3
As for B3, the “HMVEC-d hVEGF165 Potency IC50” value in test [6] stood at 0.347 nM. For the same molecule, the “NIH-3T3 hPDGF-BB Potency IC50” value in test [7] worked out at 0.29 nM. The IC50 was 0.111 nM in [8] and more than 5 nM in [9].
